Data taken from paper PMC3701909, “Direct single molecule measurement of TCR triggering by agonist pMHC in living primary T cells” (eLife, 2013).
Values belong to the compound of their own block, whether it stands above or below them.

Legend:
[1] = tested on: AND TCR; assay: single molecule tracking of agonist pMHC:TCR dwell times in hybrid live T cell-supported membrane junctions; type: binding, mouse; details: AND T cells, 37 °C, compared with same-day control
Text: (§1) We probe agonist pMHC:TCR complex dynamics in hybrid live cell—supported membrane junctions([Grakoui et al., 1999]) (Figure 1A). The supported membrane is functionalized with MHC (IE^k) and intercellular adhesion molecule-1 fusion with a blue fluorescent protein (ICAM1-TagBFP), both linked to the membrane via C-terminal poly-His tag binding to Ni-chelating lipids ([Nye and Groves, 2008]). The MHC is loaded with peptide (moth cytochrome c [MCC] agonist or null), which is covalently coupled in a 1:1 stoichiometry (verified by HPLC) to the photostable fluorophores Atto647N or Atto488 using maleimide-thiol chemistry. […]
(§2) Since the slow-moving pMHC can be clearly resolved from the fast moving component, the lifetime of molecules in this bound state is directly observable. […] Unbinding and photobleaching are indistinguishable in fluorescence methods such as this. […]
(§3) TIRF experiments were performed on an inverted microscope (Nikon Eclipse Ti; Technical Instruments, Burlingame, CA) using a custom-built laser launch with 488 nm (Sapphire HP; Coherent Inc., Santa Clara, CA) and 640 nm (Cube; Coherent Inc.) diode lasers, as described previously ([Smith et al., 2011]). Laser powers measured at the sample were 0.8 mW (640 nm) and 0.5 mW (488 nm) for 500 ms exposures and 4.4 mW (640 nm) for 17.5 ms exposures. […]

[2] = tested on: 5c.c7 TCR; assay: as above; type: binding, mouse; details: 5c.c7 T cells, 37 °C, compared with same-day control
Text: as §1, §2, §3

[3] = target: MCC agonist pMHC: MHC class II I-E^k loaded with MCC(C) peptide labelled with Atto647N (not stated | moth) (UniProt P04230); assay: two-color single molecule fluorescence tracking (TIRF); agonist pMHC (MCC-Atto647N) on a supported lipid bilayer; live T cells expressing ZAP70-EGFP; 1 frame/s, 500 ms integration; pair pMHC and TCR
[4] = target: MCC agonist pMHC: MHC class II I-E^k loaded with MCC(C) peptide labelled with Atto488 (not stated | moth) (UniProt P04230); assay: single molecule fluorescence tracking (TIRF); pMHC (Atto488 on the peptide) tethered by His tags to a Ni-NTA supported lipid bilayer with ICAM1-TagBFP; live primary T cell blasts added; 500 ms exposure, 1-10 s time lapse; dwell time of the slow-moving pMHC corrected for photobleaching; 37°C, imaging buffer; also at 100 molecules/µm^2 and with Latrunculin A
[5] = target: phosphorylated ITAM domains on the cytoplasmic side of TCR engaged with pMHC (TCR complex, 10 ITAM domains) (mouse (endogenous in primary T cells)); assay: two-color single molecule fluorescence tracking (TIRF); ZAP70-EGFP intensity integrated over a 315 nm square centred on each pMHC:TCR complex in live T cells; change-point analysis; intensity calibrated with single ZAP70-EGFP molecules of the same cell; dwell times not corrected for photobleaching

Compound: C/C1=C/C(=O)O[C@@H]2C[C@@H](CC[C@H](C)/C=C\C=C\CC1)O[C@@](O)([C@@H]1CSC(=O)N1)C2 [Latrunculin A]
effect of cytoskeleton disruption on ⟨τoff⟩ of agonist pMHC [1]: moderately increases | effect of cytoskeleton disruption on agonist pMHC binding kinetics [2]: no significant effect

stoichiometry N [3]: 1 | mean dwell time 〈τoff〉 [4]: 53.8 s
Compound: AND TCR

ZAP70 molecules (EGFP-tagged and endogenous) per feature (ZAP70 molecules per feature) [5]: 6 | molecular binding dwell time [5]: 12 to 107 s | stoichiometry N (ZAP70-EGFP per feature) [5]: 2.9
Compound: enhanced green fluorescent protein fused to CD3 zeta-chain-associated protein of 70 kDa (Zap70-EGFP) (from UniProt P43404 1-618) (enzyme)
